Measurements as given in US20250186597A1, “TARGETED IMMUNE ACTIVATION WITH IL-18 IMMUNOCYTOKINES” (BRIGHT PEAK THERAPEUTICS AG, priority 2023, published 2025).

Tests used:
human PD-L1/B7-H1 = biological target: T1, human PD-L1/B7-H1 (Homo sapiens, UniProt Q9NZQ7); assay: PD-L1 binding ELISA assay (Example 5); details: biotinylated human PD-L1
T1 construct: purchased ACROBiosystems PD1-H82E5-25UG
Procedure: (§1) The interaction of the unmodified antibodies and corresponding IL-18 immunocytokines with relevant immune cell associated antigen are measured by ELISA assay. For these studies, Corning high-binding half-area plates (Fisher Scientific, Reinach, Switzerland) are coated overnight at 4° C. with 25 μl of unmodified antibodies corresponding IL-18 immunocytokines at […] in PBS. […] Plate surfaces are blocked with 25 μl of PBS-0.02% Tween20-1% BSA at 37° C. during 1 h. […] ELISA signal is then measured at 450 nm on an ENSPIRE® plate reader from Perkin Elmer (Schwerzenbach, Switzerland).

[1] = biological target: T2, human neonatal Fc receptor (FcRn) (Homo sapiens, UniProt P55899); assay: Human FcRn binding AlphaLISA at pH 6 (Example 9)
T2 construct: purchased Perkin Elmer AL3095C
Procedure: The interaction of the unmodified and of conjugated anti-PD1 antibodies with the human neonatal Fc receptor (FcRn) at pH 6 was measured using the AlphaLISA® Human FcRn Binding Kit (AL3095C) from Perkin Elmer (Schwerzenbach, Switzerland). […] When reference IgG binds to FcRn, donor and acceptor beads come into proximity enabling the transfer of singlet oxygen that trigger a cascade of energy transfer reactions in the acceptor beads, resulting in a sharp peak of light emission at 615 nm. Addition of a free IgG antibodies into the AlphaLISA® mixture creates a competition for the binding of FcRn to the reference antibody resulting in a loss of signal.
After 90 min at 23° C. in the dark, AlphaLISA® signal was measured on an EnSpire plate reader (Excitation at 680 nm, Emission at 615 nm) from Perkin Elmer (Schwerzenbach, Switzerland).

[2] = biological target: T3, human Fc gamma receptors IIa (FcγRIIa/CD32a) (Homo sapiens, UniProt P12318); assay: Human FcγR binding ELISA, FcγRIIa/CD32a (Example 8); details: ELISA binding affinity
T3 construct: purchased R&D systems 9595-CD-050
T3 sequence (P12318 34-317): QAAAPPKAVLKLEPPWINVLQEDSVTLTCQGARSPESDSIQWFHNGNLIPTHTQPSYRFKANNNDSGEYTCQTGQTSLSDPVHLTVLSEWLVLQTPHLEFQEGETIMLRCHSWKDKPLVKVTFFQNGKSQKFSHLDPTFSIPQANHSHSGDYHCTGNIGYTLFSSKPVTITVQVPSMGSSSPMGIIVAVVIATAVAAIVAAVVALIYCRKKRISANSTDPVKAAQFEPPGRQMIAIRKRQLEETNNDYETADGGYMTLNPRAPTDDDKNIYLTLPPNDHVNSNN
Procedure: (§2) The interaction of the unmodified and of conjugated antibodies with human Fc gamma receptors I (FcγRI/CD64), with human Fc gamma receptors IIa (FcγRIIa/CD32a), with inhibitory human Fc gamma receptors IIb (FcγRIIb/CD32b), and with human Fc gamma receptors III FcγRIIIa/CD16 were measured by ELISA.
(§3) Briefly, Corning high-binding half-area plates (Fisher Scientific, Reinach, Switzerland) were coated overnight at 4° C. with 25 μl of unmodified and of conjugated anti-PD1 antibodies at 2.5 μg/ml in PBS. […] Plates surfaces were blocked with 25 μl of PBS-0.02% Tween20-1% BSA at 37° C. during 1 h. […] Twenty-five microliters of a 1/500 HRP-anti-His antibody in PBS—0.02% Tween20—0.1% BSA (R&D systems, anti-HIS—HRP Ab, #MAB050H) were added to each well and plates were incubated at Room Temperature during 1 h. […] ELISA signal was then measured at 450 nm on an EnSpire plate reader from Perkin Elmer (Schwerzenbach, Switzerland).

[3] = biological target: T4, human Fc gamma receptors III FcγRIIIa/CD16 (Homo sapiens, UniProt P08637); assay: Human FcγR binding ELISA, FcγRIIIa/CD16 (Example 8); details: ELISA binding affinity
T4 construct: purchased R&D systems 4325-FC-050
Procedure: as §2, §3

[4] = biological target: T5, human Fc gamma receptors IIb (FcγRIIb/CD32b) (Homo sapiens, UniProt P31994); assay: Human FcγR binding ELISA, FcγRIIb/CD32b (Example 8); details: ELISA binding affinity
T5 construct: purchased R&D systems AVI1875-050
T5 sequence (P31994 43-310): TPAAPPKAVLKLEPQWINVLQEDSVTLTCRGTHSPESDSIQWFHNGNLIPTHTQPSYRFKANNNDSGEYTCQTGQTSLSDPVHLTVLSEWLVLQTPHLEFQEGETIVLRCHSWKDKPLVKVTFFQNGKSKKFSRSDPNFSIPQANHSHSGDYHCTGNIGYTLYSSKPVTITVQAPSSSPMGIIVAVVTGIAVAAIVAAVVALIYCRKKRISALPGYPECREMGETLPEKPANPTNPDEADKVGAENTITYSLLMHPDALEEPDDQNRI
Procedure: as §2, §3

human PD-1/CD279 = biological target: T6, human PD-1/CD279 (Homo sapiens, UniProt Q15116); assay: PD-1 binding ELISA assay (Example 5); details: biotinylated human PD-1
T6 construct: purchased Biolegend #789406
Procedure: as §1

[5] = biological target: T7, human Fc gamma receptors I (FcγRI/CD64) (Homo sapiens, UniProt P12314); assay: Human FcγR binding ELISA, FcγRI/CD64 (Example 8); details: ELISA binding affinity
T7 construct: purchased R&D systems 1257-FC-050
Procedure: as §2, §3

[6] = system: PD-1 positive (transduced) KG-1 cells; assay: IFN gamma secretion assay in PD-1 transduced KG-1 cells (Example 11); format: cell-based, human
Procedure: (§4) The KG-1 cell line was used to generate a PD-1 expressing cell line and furthermore, to measure IFNγ release upon incubation with IL-18 variants and corresponding IL-18 immunocytokines.
PD-1 expressing cell line generation: Briefly, KG-1 cells were transduced using lentiviral particles carrying the human PD-1 gene (PDCD1 NM_005018; Origene, CAT #: RC210364L3V) at a MOI (Multiplicity of Infection) of 30. Spinfection was performed at 1260 g during 90 min at 37° C. in the presence of 5 μg/ml of Polybrene and 10 mM of HEPES in complete culture media (RPMI, 10% FBS, 1% L-Glutamine). Five days after transduction, puromycin at a final concentration of 1 ug/ml was added to select for PD-1 positive cells. For culture maintenance, puromycin concentration was decreased to 0.5 μg/ml. Stable and homogenous expression of PD-1 was verified by surface staining (BD Pharmingen, #557860).
(§5) IFNγ release was assessed in PD-1 positive (transduced) KG-1 cells, as well as in the parental PD-1 negative cells. 0.5×10^5 cells were seeded into a 96-well U-bottom plate in culture media (RPMI, 10% FBS, 1% L-Glutamine) and stimulated with IL-18 variants/ICs for 20-24 h. The test items were diluted to 100 nM in culture medium, followed by 7 10-fold serial dilutions. The lowest concentration assessed was […]. After incubation, IFNγ release was measured using the LEGENDplex custom human mix and match KIT (Biolegend LEGENDplex™ Human IFN-γ Capture Bead B5, 13X #740942, LEGENDplex™ HU Essential Immune Response Panel Detection Abs, #740931, LEGENDplex™ Buffer Set A #740368). To this end, cell culture supernatant was collected and diluted 1:1 with Assay Buffer. Fluorescence measurements were done with a Quanteon Flow Cytometer from Acea Biosciences. For analysis, MFI values (median fluorescence intensity) were exported and plotted against concentrations used. The EC50 values (half maximal effective concentration) were calculated based on a variable slope and four parameter analysis using GraphPad PRISM software version 9.

[7] = biological target: T8, human IL-18 Binding Protein (IL-18BP) (Homo sapiens, UniProt O95998); assay: IL-18 Binding Protein alphaLISA assay (Example 12); details: human IL-18BP
T8 sequence (O95998 31-194): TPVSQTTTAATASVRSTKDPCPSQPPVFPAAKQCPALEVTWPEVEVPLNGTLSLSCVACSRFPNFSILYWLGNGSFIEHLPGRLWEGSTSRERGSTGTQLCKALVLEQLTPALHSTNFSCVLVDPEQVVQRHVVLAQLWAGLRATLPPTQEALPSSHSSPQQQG
Procedure: Wild type or modified IL-18 polypeptides samples were diluted at 5.6 μM in a solution of 1× alphaLISA Immunoassay Buffer provided in the alphaLISA IFNγ Detection kit and were diluted applying 3-fold serial dilutions down to […] in 384 deep well plates. A solution of 10 ng/ml of human IL-18BP-His was prepared with 1×alphaLISA Immunoassay Buffer. IL-18/IL-18BP complex formation was performed incubating 30 μl of IL-18BP solution to IL-18 sample titrations for 1 h at 20° C. IL-18BP standard was prediluted from stock solution supplied in alphaLISA IFNγ Detection kit at 100 ng/ml with 1×alphaLISA Buffer and titration prepared from applying 2-fold serial dilutions. The following solutions were prepared: a 50 μg/ml solution of anti-IL-18BP alphaLISA Acceptor beads, a 5 nM solution of biotinylated anti-IL18BP antibody and a 80 μg/ml light-protected solution of Streptavidin Donor beads in 1×alphaLISA Immunoassay Buffer. […]
5 μl of Biotinylated anti-IL-18BP antibody were added, followed by a short centrifugation step at 150 g, and incubated for 60 minutes at 20° C. under shaking at 750 rpm. […] AlphaLisa signal was then measured on an Enspire plate reader (Perkin Elmer) using 680 and 615 nm as excitation and emission wavelengths respectively. […]

NK92 cells [8] = assay: Cellular IL-18 Binding Protein resistance assay in NK92 cells (Example 13); format: cell-based, human; details: IL-18BP-mediated inhibition of IFNγ secretion, IL-18 analyte 1 nM
Procedure: The NK cell line NK-92 derived from a patient with lymphoma (ATCC, Cat #CR^L-2407) was cultured in αMEM medium supplemented with 20% FCS-Glutamax, 25 μM B-mercaptoethanol, and 100 IU/ml of recombinant Human Interleukin-2 (IL-2). On the day of experiment, cells were harvested and washed with αMEM medium without IL-2. After counting, cells were seeded at 100 000 cells/well in a 384 well titer plate and incubated at 37° C./5% CO2. Sixteen 2-fold serial dilutions of Fc fused human IL-18 binding protein isoform a (IL-18BPa; R&D systems, Cat #119-BP) were prepared in αMEM medium—1 ng/ml IL-12 containing 2 nM of each IL-18 variants and were added to the NK-92 cells. Final IL-18 analytes concentration was 1 nM and final IL-18BPa concentrations ranged from to 566 nM down to 17 pM.
(§6) After 16-20 h incubation at 37° C./5% CO2, 5 μl of supernatant were carefully transferred to a 384 microwells OPTIplate (Perkin Elmer; Cat #6007270) and Interferon-gamma (IFNγ) levels measured using the Human IFNγ AlphaLISA Assay Kit (Perkin Elmer, Cat #AL217C). […] AlphaLisa signal was then measured on an Enspire plate reader (Perkin Elmer) using 680 and 615 nm as excitation and emission wavelengths respectively. Half maximal inhibitory concentration (IC50) was calculated based on a variable slope, four parameter analysis using GraphPad PRISM software.

[9] = system: parental PD-1 negative KG-1 cells; assay: IFN gamma secretion assay in parental PD-1 negative KG-1 cells (Example 11); format: cell-based, human; details: IFNγ secretion
Procedure: as §4, §5

NK92 cells [10] = assay: IFN gamma secretion assay in NK92 cells (Example 10); format: cell-based, human; details: IFNγ secretion, 1 ng/ml IL-12
Procedure: The IFNγ-secretion stimulating activity of the unconjugated IL-18 variants and corresponding IL-18 immunocytokines was evaluated on NK92 cell line. The NK cell line NK-92 derived from a patient with lymphoma (ATCC, Cat #CRL-2407) was cultured in aMEM medium supplemented with 12.5% FCS, 12.5% horse serum (HS), 50 uM B-mercaptoEthanol, and 2 ng/ml of recombinant Human Interleukin-2 (IL-2).
On the day of experiment, cells were harvested and washed with aMEM medium without IL-2 and resuspended in medium (w/o IL-2) containing 1 ng/ml of recombinant human Interleukin-12 (SinoBiologicals, Cat #CT011-H08H). After counting, cells were seeded at 100 000 cells/well in a 384 well titer plate and incubated at 37° C./5% CO2. Sixteen 4-fold serial dilutions of IL-18 analytes were prepared in aMEM medium—1 ng/ml IL-12 and were added to the NK-92 cells. […]
as §6, with “OPTIPlate” for “OPTIplate”, “effective” for “inhibitory”, “(EC50)” for “(IC50)”

T1 sequence (Q9NZQ7 19-290): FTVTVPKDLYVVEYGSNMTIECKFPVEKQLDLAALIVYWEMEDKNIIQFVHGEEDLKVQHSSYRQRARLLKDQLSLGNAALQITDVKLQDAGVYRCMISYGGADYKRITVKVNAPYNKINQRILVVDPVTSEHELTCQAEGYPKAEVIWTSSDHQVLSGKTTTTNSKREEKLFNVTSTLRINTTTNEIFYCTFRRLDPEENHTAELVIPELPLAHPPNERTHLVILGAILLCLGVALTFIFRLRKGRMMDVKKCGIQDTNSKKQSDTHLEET
T4 sequence (P08637 17-254): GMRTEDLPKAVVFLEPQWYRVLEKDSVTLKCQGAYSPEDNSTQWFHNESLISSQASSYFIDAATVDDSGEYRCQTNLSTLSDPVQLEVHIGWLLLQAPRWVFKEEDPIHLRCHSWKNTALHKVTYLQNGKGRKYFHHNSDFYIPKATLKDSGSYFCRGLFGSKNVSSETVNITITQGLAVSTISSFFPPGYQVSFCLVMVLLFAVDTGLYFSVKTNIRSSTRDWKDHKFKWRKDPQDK
T6 sequence (Q15116 25-288): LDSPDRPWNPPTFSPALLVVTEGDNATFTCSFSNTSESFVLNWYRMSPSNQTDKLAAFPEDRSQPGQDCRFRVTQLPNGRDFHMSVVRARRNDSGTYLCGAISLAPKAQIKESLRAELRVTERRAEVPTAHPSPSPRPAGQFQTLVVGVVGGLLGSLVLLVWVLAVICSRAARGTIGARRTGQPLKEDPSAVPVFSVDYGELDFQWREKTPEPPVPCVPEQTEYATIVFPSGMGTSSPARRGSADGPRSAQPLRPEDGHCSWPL
T7 sequence (P12314 16-374): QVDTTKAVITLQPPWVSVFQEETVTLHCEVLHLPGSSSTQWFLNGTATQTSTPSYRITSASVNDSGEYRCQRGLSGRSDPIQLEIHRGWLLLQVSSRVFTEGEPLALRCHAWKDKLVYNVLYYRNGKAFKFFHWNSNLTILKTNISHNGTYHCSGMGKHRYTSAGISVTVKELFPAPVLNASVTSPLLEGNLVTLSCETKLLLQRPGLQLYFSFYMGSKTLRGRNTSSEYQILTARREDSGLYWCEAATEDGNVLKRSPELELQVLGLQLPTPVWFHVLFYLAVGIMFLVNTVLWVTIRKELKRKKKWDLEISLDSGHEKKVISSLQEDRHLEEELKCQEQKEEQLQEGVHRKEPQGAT
T2 sequence (P55899 24-297 limits assumed): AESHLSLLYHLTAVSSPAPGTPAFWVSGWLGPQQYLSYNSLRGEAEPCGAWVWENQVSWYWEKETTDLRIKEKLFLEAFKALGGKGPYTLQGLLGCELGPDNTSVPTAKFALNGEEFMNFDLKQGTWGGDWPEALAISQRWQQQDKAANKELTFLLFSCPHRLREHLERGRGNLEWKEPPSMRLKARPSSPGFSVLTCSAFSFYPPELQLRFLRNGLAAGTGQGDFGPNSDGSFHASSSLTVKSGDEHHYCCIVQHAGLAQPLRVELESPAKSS
T2 sequence (P61769 21-119 partner): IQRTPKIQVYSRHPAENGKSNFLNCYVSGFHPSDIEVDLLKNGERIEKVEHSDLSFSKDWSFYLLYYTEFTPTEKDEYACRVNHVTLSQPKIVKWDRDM

Atezolizumab/Tecentriq
Kd (human PD-L1/B7-H1): 0.443 nM
Kd [1]: 6.4 nM
Kd [2]: 1370 nM
Kd [3]: 356 nM
Kd [4]: > 10000 nM
Kd (human PD-1/CD279): > 100 nM
Kd [5]: 9.17 nM

SEQ ID NO: 31: IL-18 polypeptide: C38A, C76A, C127A
EC50 ([6]; IFNγ secretion, PD-1 transduced KG-1): 0.135 nM
PD-1^neg/PD-1^pos EC50 ratio ([6]; KG-1 cells): 1.2
Kd [7]: 0.103 nM
IC50 (NK92 cells [8]): 0.282 nM
EC50 [9]: 0.148 nM
EC50 (NK92 cells [10]): 0.103 nM
